Assays:
retina [1] = conditions: long-term periocular treatment; cited from earlier work
rat ROP model = assay: Lectin-stained retinal flat mounts, IVNV and AVA, rat ROP model (rat 50/10 OIR model); assay type: in vivo; conditions: 1 uL intravitreal, ROP model
macrophages = assay: Macrophages in rat ROP and ROP+SO models; assay type: in vivo; conditions: 1 uL intravitreal
Source text: Activation of NADPH oxidase generally requires aggregation of a NOX isoform (NOX1-5, Duox1 or 2) with membrane bound p22phox; for NOX1-3 activation, aggregation with Rac1 and cytoplasmic subunits p47phox, p67phox or homologs is also required. Few studies address oxygen effects on NADPH oxidase regulated signaling in ROP or development. Studying NADPH oxidase in vivo is also complicated, because 1) of compensation from NOX isoforms or homologs, which differ in different tissues, and 2) most inhibitors are not specific. In this example, oxygen stresses were varied by using 3 different OIR models: ROP and ROP+SO models in rat and OIR model in mouse. NADPH oxidase-induced signaling in ECs was targeted by reducing leukocyte/macrophages, which generate ROS through NADPH oxidase, or with a transgenic mouse. In rat ROP and ROP+SO models, macrophages ˜75% (FIG. 7A) were reduced with 1 uL intravitreal clodronate). […] Macrophages have multiple effects on angiogenesis including through non-NADPH oxidase mechanisms, so a more specific method was used to study NADPH oxidase-related signaling. NOX 1, 2, 4 are known to be involved in pathologic retinal angiogenesis; NOX2 is in macrophages and ECs. Therefore p47phox−/− mice were used to reduce NADPH oxidase activation from NOX 1-3. […]

EPOR = EPOR expression in hRMVECs (qPCR, Western blot); assay type: cell-based, human; conditions: overnight treatment, vs PBS
Source text: hRMVECs (Cell Systems, Kirkland, Wash.) were maintained in EGM-2 endothelial growth medium (Lonza, Walkers-ville, MD) supplemented with 5% fetal bovine serum. Cells of passage 3 to 5 were used for experiments. […]
For siRNA transfection, hRMVECs at 70% confluency were transfected in six-well plates with siRNAs targeting human EPOR, VEGFR2, or STAT3 (Life Technologies, Carlsbad, Calif.) using Lipofectamine 2000 reagent (Invitrogen by Life Technologies, Carlsbad, Calif.). A silencer selective negative control siRNA was used as control.
Total RNA of cells was extracted by TRI Reagent (Sigma-Aldrich, St. Louis, Mo.). For dissected retinas, total RNA was extracted using an RNeasy mini kit (Qiagen, Valencia, Calif.). RNA was quantified using a NanoDrop spectrophotometer (Thermo Fisher Scientific, Waltham, Mass.). cDNA was generated with the use of a high-capacity cDNA archive kit (Life Technologies, Carlsbad, Calif.). qPCR was performed on a Mastercycler ep realplex system (Eppendorf, Hauppauge, N.Y.) with the use of SYBR Green master mix (Roche Diagnostics, Indianapolis, Ind.) and primers synthesized by the core research facility of the University of Utah. Expression levels for VEGFA were normalized to the mean value of internal control β-actin. […]
Dissected retinas and hRMVECs were lysed in radioimmunoprecipitation assay buffer with 1:100 protease inhibitors (Roche Diagnostics, Indianapolis, Ind.) and 2 mmol/L sodium orthovanadate and were homogenized and centrifuged at 13,000 rpm (15,700 g) for 10 minutes at 4° C. Total protein in the supernatant fluid was quantified by a bicinchoninic acid assay (Pierce BCA; Thermo Fisher Scientific, Waltham, Mass.). […] Blots were visualized, and the relative densities of bands were calculated as described herein, using gel analysis software (UN-SCAN-IT gel, version 6.1; Silk Scientific, Orem, Utah). Relative activities were calculated as the ratio of phosphorylated to total protein or to β-actin and are expressed as fold difference compared with control. At least six samples from each group were measured and analyzed.

retina [2] = assay: TUNEL staining, retinal layer thickness, caspase 3 in retina, rat ROP model; assay type: in vivo; conditions: compared with PBS
Experimental: Whole eye globes were fixed in 4% PFA containing 10 mM sodium orthovanadate for 10 minutes. Corneas and lenses were removed, and posterior eyecups were fixed for another 15 minutes in 4% PFA, then incubated in 30% sucrose/PBS at 4° C. overnight, and mounted in optimal cutting temperature compound (Tissue-Tek; Electron Microscopy Sciences, Hatfield, Pa.). Cryosections (12 μm) were cut sequentially and stained for immunofluorescence analysis. Cryosections were incubated with rabbit anti-phosphorylated VEGFR2 (p-VEGFR2 at Y951; Santa Cruz Biotechnology, Santa Cruz, Calif.) overnight at 4° C. After washes, sections were incubated with AlexaFluor 405 conjugated goat anti-rabbit second antibody for p-VEGFR2 and lectin for 1 hour. Sections stained with only secondary antibody and DAPI were controls. […] For p-VEGFR2 in retinal vessels, the density of p-VEGFR2 colabeling with lectin-stained ECs of the primary vascular plexus at the junctions between avascular retina and vascular retina was measured with the threshold function of the Java-based imaging software (NIH). TUNEL-positive cells colabeled with tetramethylrhodamine red (TMR red) and diamino-2-phenylindole (DAPI) were counted in retinal sections imaged at ×4 magnification. Retinal thickness was measured from ganglion cell to ONL in DAPI-stained sections captured at ×40 magnification using Java-based imaging software (NIH). […]

pSTAT3 = assay: IHC densitometry of pSTAT3 colabeled with lectin, p18 rat ROP model; assay type: in vivo; conditions: injected at p10, 10^6 viral particles/inj, vs. luc.shRNA
STAT3 = assay: Western blot of STAT3 in 293T cotransfected with Lenti-VE-cad-GFP-driven shRNA and plasmid expressing coding sequence; assay type: cell-based, rat; conditions: 293Ts
Source text: The strategy can be similar to knockdown of MC-expressed VEGFA, except a ve-cadherin promoter to target ECs can be used. The ve-cadherin promoter recruits polymerase II to drive miR30 embedded shRNAs. […] For control, shRNA targeted to luciferase (luc.shRNA), a nonmammalian gene, was used. Into a plasmid DNA expressing a Flag-tagged wild type (wt) coding sequence (wt-cDNA) for EPOR or VEGFR2, point mutations in the cognate region of the cDNA can be introduced where the shRNA binds to render the cDNA resistant to RISC cleavage without changing the native amino acid sequence (mut-cDNA). Then cotransfect 293T cells with either VEGFR2.shRNA or EPOR.shRNA and respective wt-cDNA or mut-cDNA. Off target effects can be determined by western blots of Flag expression or from interferon-induced genes using BLOCK-iT RNAi Stress Response Control Kit (Invitrogen, CA). Groups can be: rat EPOR.shRNAs+rat EPOR-wt-cDNA, rat EPOR. shRNAs+rat EPOR-mut-cDNA, rat VEGFR2.shRNA+rat VEGFR2-wt-cDNA or rat VEGFR2.shRNA+rat VEGFR2-mut-cDNA. Luc.shRNA and no DNA transfection can be controls. For specificity (FIG. 14A), lentiviral transduction of rECs, rat MCs (rMC-1s), human ARPE can be tested.
Using methods as in Example 5, 3 STAT3.shRNAs for knockdown in 293 Ts (FIG. 14D) were developed and tested. […]

rMVECs = assay: Lentivirus transduction specificity (ve-cadherin promoter) in cultured cells; assay type: cell-based; conditions: rMVECs vs rat MC-1s, 293T

For `CN(C)c1ccc(/C=C2\C(=O)Nc3ccccc32)cc1` [SU4312], the retinal apoptosis (retina [1]) is given as “no retinal apoptosis”.

With `O=P(O)(O)C(Cl)(Cl)P(=O)(O)O` [clodronate] the AVA (rat ROP model) was “not AVA”, the IVNV (rat ROP model; vs. PBS) was “significantly reduced” and the reduction of macrophages (macrophages) was about 75%.

B1: vascular endothelial growth factor A (protein)
chain: APMAEGGGQNHHEVVKFMDVYQRSYCHPIETLVDIFQEYPDEIEYIFKPSCVPLMRCGGCCNDEGLECVPTEESNITMQIMRIKPHQGQHIGEMSFLQHNKCECRPKKDRARQENPCGPCSERRKHLFVQDPQTCKCSCKNTDSRCKARQLELNERTCRCDKPRR
notes: growth factor used at 20 ng/mL to stimulate hRMVECs
With B1 the EPOR protein (EPOR; 20 ng/mL VEGFA or 10 IU/mL EPO) was “increased EPOR mRNA expression (FIG. 35A) and protein levels” and the “EPOR mRNA expression” value (EPOR) was “increased EPOR mRNA expression”.

B2: luciferase.shRNA: control lentivector shRNA to the nonmammalian gene luciferase (nucleic acid)
DNA: TGCTGTTGACAGTGAGCGAAATGTTTACTACACTCGGATATAGTGAAGCCACAGATGTATATCCGAGTGTAGTAAACATTCTGCCTACTGCCTCGGA
For B2, the “TUNEL+ cells” value (retina [2]) was “increased TUNEL+ cells at P18 but not at P25” and the “thickness of the retina, INL or ONL” value (retina [2]) was “did not alter the thickness of the retina”.

B3: STAT3.shRNA2: lentivector-ve-cadherin STAT3.shRNA with the best knockdown; rat STAT3 (nucleic acid)
chain: TGCTGTTGACAGTGAGCGAATCGTGGATCTGTTCAGAAACTAGTGAAGCCACAGATGTAGTTTCTGAACAGATCCACGATCTGCCTACTGCCTCGGA
With B3 the “pSTAT3/STAT3 colabeling with lectin” value (pSTAT3) was “STAT3-lectin colabeling was reduced”, the “pSTAT3/STAT3 colabeling with lectin” value (pSTAT3; listed as STAT3.shRNA) was “reduced” and the “STAT3 knockdown among 3 STAT3.shRNAs” value (STAT3) was “best knockdown”. The “cell specificity of transduction” value (rMVECs) was “showed specificity for rat MVECs”.
